From PMC4917396
“And” between values parts separate entries of the source, which are not always exact repeats. Equal entries are not always repeated.

Key:
[1] = molecular target: recombinant full-length murine amelogenin with an uncleavable N-terminal histidine tag (rp(H)M180) (mouse); experiment: in situ AFM with volume analysis of adsorbates
[2] = molecular target: recombinant full-length murine amelogenin with an uncleavable N-terminal histidine tag (rp(H)M180) (mouse); experiment: in situ AFM coverage with Hill fit
[3] = molecular target: recombinant full-length murine amelogenin without tag (rpM179) (mouse); experiment: in situ AFM with volume analysis of adsorbates
[4] = molecular target: recombinant full-length murine amelogenin without tag (rpM179) (mouse); experiment: DLS
[5] = molecular target: recombinant full-length murine amelogenin without tag (rpM179) (mouse); experiment: in situ AFM with volume analysis of adsorbates; remark: listed apart in the source
[6] = molecular target: recombinant full-length murine amelogenin without tag (rpM179) (mouse); experiment: in situ AFM with volume analysis of adsorbates; remark: listed apart in the source
[7] = molecular target: recombinant full-length murine amelogenin without tag (rpM179) (mouse); experiment: in situ AFM coverage with Hill fit

stoichiometry N [1] [monomers]	ln Ka [2] [Ka in M^-n]	stoichiometry N [3] [monomers]	stoichiometry N [4] [monomers]	stoichiometry N [5]	stoichiometry N [6] [monomers]	ln Ka [7] [Ka in M^-n]	Substance
25	76.2						recombinant full-length murine amelogenin with an uncleavable N-terminal histidine tag (rp(H)M180) (natural protein)
		150	200	100 monomers and 200 monomers	25	3.35	recombinant full-length murine amelogenin without tag (rpM179) (natural protein)
